Test results published in publication PMC5755574.

Target: Alcaligenes xylosoxidans copper nitrite reductase (Alcaligenes xylosoxidans)
Experiment: crystal structure; as-isolated AxNiR crystals, space group R3, one monomer in the asymmetric unit, trimer formed by crystal symmetry; SRX resting state at 1.6 Å (BL41XU, SPring-8, cryo); the SF-ROX structure (SACLA XFEL, 100 K, 1.6 Å) from the same batch of crystals has near-identical global architecture

Alcaligenes xylosoxidans copper nitrite reductase (enzyme)
stoichiometry N: 3
